Assay results: patent US12325863B2, “MDA-7/IL-24 secretory variants and methods of use” (Virginia Commonwealth University, priority 2018, dated 2025)

Key:
[1] = Sabutoclax and BI-97D6 in combination with MDA-7/IL-24; details: combined with MDA-7/IL-24; earlier observation referred to
Procedure: To test a multi-target approach for treatment of prostate cancer bone metastases, experiments were conducted to target Mcl-1 inhibition and investigate the effects on NG-mda-7/IL-24 efficacy. […] In addition to these inhibitors, three commercially available targeted inhibitors were evaluated to determine potential synergistic effects with MDA-7/IL-24. […] Next, the therapeutic effect of MDA-7/IL-24 protein in combination with BI-97D6 was tested, in male athymic nude mice injected by the intracardiac route with human prostate cancer PC3-ML cells, resulting in bone metastases.

[2] = tested on: human prostate cancer PC3-ML cells; assay: PC3-ML intracardiac bone metastasis model in athymic nude mice; assay type: in vivo; details: single agent, versus control group
Procedure: To test a multi-target approach for treatment of prostate cancer bone metastases, experiments were conducted to target Mcl-1 inhibition and investigate the effects on NG-mda-7/IL-24 efficacy. Using NMR (nuclear magnetic resonance) and computational biology, two Mcl-1 inhibitors were identified (Sabutoclax and BI-97D6) and their activity was validated in immune competent mice in combination with MDA-7/IL-24. In addition to these inhibitors, three commercially available targeted inhibitors were evaluated to determine potential synergistic effects with MDA-7/IL-24. The three inhibitors were UMI-77 (showing selectivity to Mcl-1 over other members of the Bcl-2 family), Marinopyrrole A (selective inhibitor of Mcl-1), and A-1210477. […] Mcl-1 expression was elevated by 1.7-fold in RM1-BM (RM1-BM cells selected for enhanced metastasis to bone) as compared to RM1 cells, indicating functional relevance of Mcl-1 in this metastatic process. […] This further supported the cancer-specificity of specific Mcl-1 inhibitors. Next, the therapeutic effect of MDA-7/IL-24 protein in combination with BI-97D6 was tested, in male athymic nude mice injected by the intracardiac route with human prostate cancer PC3-ML cells, resulting in bone metastases.

RWPE-1 cells = assay: MTT assay with Mcl-1 inhibitors, RWPE-1; assay type: cell-based, human; details: alone or in combination with MDA-7/IL-24, 48 hrs; FIG. 26C
Procedure: Human (DU-145) CaP cells were treated with different targeted small molecules alone (FIG. 26A) or in combination with MDA-7/IL-24 (FIG. 26B), and after 48 hrs cell growth was measured by MTT. * indicates statistical significance vs. respective control group. Immortalized primary normal human prostate epithelial cells, RWPE-1, were treated with different combinations as indicated and MTT assays were performed at 48 hrs (FIG. 26C). Murine (RMI-BM) CaP cells were treated with different targeted small molecules alone (FIG. 26D) or in combination with MDA-7/IL-24 (FIG. 26E), and after 48 hrs. cell growth was measured by MTT.
To test a multi-target approach for treatment of prostate cancer bone metastases, experiments were conducted to target Mcl-1 inhibition and investigate the effects on NG-mda-7/IL-24 efficacy. Using NMR (nuclear magnetic resonance) and computational biology, two Mcl-1 inhibitors were identified (Sabutoclax and BI-97D6) and their activity was validated in immune competent mice in combination with MDA-7/IL-24. In addition to these inhibitors, three commercially available targeted inhibitors were evaluated to determine potential synergistic effects with MDA-7/IL-24. The three inhibitors were UMI-77 (showing selectivity to Mcl-1 over other members of the Bcl-2 family), Marinopyrrole A (selective inhibitor of Mcl-1), and A-1210477. […]

HeLa cells [3] = assay: MTT assay following transfection of HeLa cells with constructs; assay type: cell-based, human; details: for proliferation (MTT): following transfection of HeLa cells, FIG. 14
Source text: (§1) Next, lysine 122 of MDA-7/IL-24 was converted to arginine by site directed mutagenesis using forward primer (5′-[…]-3′) (SEQ ID NO: 19) and reverse primer (5′-[…]-3′) (SEQ ID NO: 20). […] These enzymes are capable of reducing the tetrazolium dye MTT 3-(4,5-dimethylthiazol-2-yl)-2,5-diphenyltetrazolium bromide to its insoluble formazan, which has a purple color.
(§2) Having an MDA-7/IL-24 construct with enhanced protein secretion as well as enhanced protein stability may be very valuable as a potential gene therapeutic for cancer. Accordingly, lysine 122 was mutated to arginine in the Insulin(sp)-MDA-7 construct using site-directed mutagenesis. […] PARP cleavage and the expression of GRP-78 were also assessed in DU-145 cells following transfection with MDA-7(sp)-MDA-7 (wild type MDA-7 signal peptide), Insulin(sp)-MDA-7, MDA-7(sp)-MDA-7(K122R) and Insulin(sp)-MDA-7(K122R) (FIG. 13).
(§3) PARP cleavage and the expression of GRP-78 were also evaluated in DU-145 cells following transfection with these four constructs, the results for which are shown in FIG. 20.

SARI = SARI expression at the transcript level in transfected DU-145 cells; assay type: cell-based, human
Procedure: (§4) SARI expression was determined at the transcript level in DU-145 cells after transfection with the indicated plasmids. […] The protein expression of MDA-7/IL-24 from the conditioned media (FIG. 5) and cell lysates (FIG. 6) of HeLa cells transfected with full length MDA-7 and Insulin(sp)-MDA-7 was assayed.
as §2, §3

DU-145 cells [4] = assay: M4 expression in conditioned media of transfected DU-145 cells (ELISA); assay type: cell-based, human; details: compared to the other 3 signal peptides, FIG. 17
Procedure: To determine if different sequence motifs could enhance the secretion of M4 over Flt-3(sp)-M4, three additional signal peptides linked to M4 were introduced and protein secretion was assessed. The four signal peptides tested were endogenous human MDA-7/IL-24, human IL-2, human Insulin, and Flt-3 signal peptides. The constructs were designated MDA-7(sp)-M4 (wildtype MDA-7/IL-24 secretory peptide), IL-2(sp)-M4, Insulin(sp)-M4, and Flt-3(sp)-M4, respectively, and a schematic illustration is shown in FIG. 16. Each of these constructs also included a Histidine-tag. These constructs were transfected into DU-145 cells and assessed for expression of M4 in the conditioned media (FIG. 17) and at the transcript level (FIG. 18). An MDA-7/IL-24 antibody and RT-Q-PCR primers able to detect M4 were used to assess M4 expression.
as §3

DU-145 cells [5] = assay: MTT assay, DU-145 cells treated with conditioned media from transfected IM-PHFA cells; assay type: cell-based, human; details: compared to the control, FIG. 24
Source text: (§5) As noted in Example 1, improvements were obtained by mutating lysine at position 122 to arginine in full-length MDA-7/IL-24. The corresponding lysine was identified in M4 and mutated to arginine using site directed mutagenesis using forward primer (5′-[…]-3′) (SEQ ID NO: 19) and reverse primer (5′-[…]-3′) (SEQ ID NO: 20). Next, Flt-3(sp)-M4 and Flt-3(sp)-M4(K122R) were transfected into DU-145 cells. […] The conditioned media from transfected IM-PHFA (immortalized primary human fetal astrocytes) cells was added to DU-145 cells and MTT assays were performed (FIG. 24).

DU-145 cells [6] = assay: M4 protein in lysate and conditioned media of transfected DU-145 cells; assay type: cell-based, human; details: K122R versus Flt-3(sp)-M4, FIG. 22
Source text: as §5

HeLa cells [7] = assay: MDA-7/IL-24 protein in conditioned media and lysates of transfected HeLa cells (Western blotting); assay type: cell-based, human
Procedure: as §4, §1

HeLa cells [8] = assay: MTT assay, HeLa cells treated with conditioned media from transfected HeLa cells; assay type: cell-based, human; details: vs control conditioned media, FIG. 8
Source text: as §1

DU-145 cells [9] = assay: MTT assay, DU-145 cells treated with conditioned media from transfected HeLa cells; assay type: cell-based, human; details: vs control conditioned media, FIG. 9
Source text: as §1

DU-145 cells [10] = assay: ELISA of MDA-7/IL-24 protein in conditioned media of transfected DU-145 cells; assay type: cell-based, human; details: DU-145 cells transfected; FIG. 10
Procedure: In an effort to enhance its anti-cancer activity, genetic engineering experiments were conducted to enhance MDA-7/IL-24 secretion. Five different signal peptides (abbreviated “sp”) were introduced, linked to MDA-7/IL-24, and assessed for protein secretion. The five signal peptides tested were endogenous human MDA-7/IL-24, human IL-2, human Insulin, Flt-3 and human BM40 (osteonectin/SPARC) signal peptides. The constructs were designated MDA-7(sp)-MDA-7 (wild type MDA-7 signal peptide), IL-2(sp)-MDA-7, Insulin(sp)-MDA-7, Flt-3(sp)-MDA-7 and BM40(sp)-MDA-7, respectively. Each of these constructs also included a Histidine-tag. These constructs were transfected into DU-145 cells (human prostate cancer cells).
The presence of MDA-7/IL-24 in the conditioned media was assessed by enzyme-linked immunosorbent assay (ELISA) and results are shown in FIG. 2.
as §2

DU-145 cells [11] = assay: MDA-7/IL-24 transcript level (RTQ-PCR) in transfected DU-145 cells; assay type: cell-based, human; details: DU-145 cells transfected; FIG. 11

## BI-97D6 [reference compound]
[1]
  antitumor synergy: antitumor synergy
[2]
  bone metastases: statistically significant inhibition of bone metastases

## O=C(c1ccccc1O)c1[nH]c(Cl)c(Cl)c1-n1c(C(=O)c2ccccc2O)cc(Cl)c1Cl [Marinopyrrole A]
RWPE-1 cells
  anti-proliferative effects (MTT): anti-proliferative effects

B1: Insulin(sp)-M4: human Insulin signal peptide linked to M4; encoded by SEQ ID NO: 12 (protein)
chain: MALWMRLLPLLALLALWGPDPAAAHHHHHHENLYFQGMESCYLVHTLLEFYLKTVFKNYHNRTVEVRTLKSFSTLANNFVLIVSQLQPSQENEMFSIRDSAHRRFLLFRRAFKQLDVEAALTKALGEVDILLTWMQKFYKL
HeLa cells [3]; M4 constructs, transfection of HeLa cells, FIG. 21
  growth (MTT): growth suppression
SARI; DU-145 cells, four signal peptide M4 constructs, FIG. 19
  SARI expression: highest SARI expression
DU-145 cells [4]
  M4 protein secretion: enhanced M4 protein secretion to a greater extent

B2: Flt-3(sp)-M4(K122R): Flt-3(sp)-M4 with the corresponding lysine mutated to arginine; encoded by SEQ ID NO: 16 (protein)
chain: MTVLAPAWSPTTYLLLLLLLSGSESCYLVHTLLEFYLKTVFRNYHNRTVEVRTLKSFSTLANNFVLIVSQLQPSQENEMFSIRDSAHRRFLLFRRAFKQLDVEAALTKALGEVDILLTWMQRFYKLGGSHHHHHH
DU-145 cells [5]
  cell growth (MTT): cell growth suppression
DU-145 cells [6]
  protein in cell lysates: increase in protein
  protein in the conditioned media: increase in protein

B3: Flt-3(sp)-M4: Flt-3 signal peptide linked to M4; encoded by SEQ ID NO: 14 (protein)
chain: MTVLAPAWSPTTYLLLLLLLSGSESCYLVHTLLEFYLKTVFKNYHNRTVEVRTLKSFSTLANNFVLIVSQLQPSQENEMFSIRDSAHRRFLLFRRAFKQLDVEAALTKALGEVDILLTWMQKFYKLGGSHHHHHH
DU-145 cells [5]
  cell growth (MTT): cell growth suppression

B4: MDA-7(sp)-MDA-7(K122R): MDA-7/IL-24 with lysine 122 converted to arginine; encoded by SEQ ID NO: 10 (protein, UniProt Q13007 1-206, looked up, variant K122R)
chain: MNFQQRLQSLWTLARPFCPPLLATASQMQMVVLPCLGFTLLLWSQVSGAQGQEFHFGPCQVKGVVPQKLWEAFWAVKDTMQAQDNITSARLLQQEVLQNVSDAESCYLVHTLLEFYLKTVFRNYHNRTVEVRTLKSFSTLANNFVLIVSQLQPSQENEMFSIRDSAHRRFLLFRRAFKQLDVEAALTKALGEVDILLTWMQKFYKL
modifications: full-length
HeLa cells [7]; HeLa cells transfected, FIG. 5
  protein in the conditioned media by Western blotting: increase in protein
HeLa cells [7]; HeLa cells transfected, FIG. 6
  protein in cell lysate by Western blotting: increase in protein
HeLa cells [3]
  proliferation (MTT): decrease in proliferation
HeLa cells [8]
  proliferation (MTT): decrease in proliferation
DU-145 cells [9]
  proliferation (MTT): decrease in proliferation

B5: Insulin(sp)-MDA-7: human Insulin signal peptide linked to MDA-7/IL-24, Histidine-tag; encoded by SEQ ID NO: 6 (protein)
chain: MALWMRLLPLLALLALWGPDPAAAHHHHHHENLYFQGMQEFHFGPCQVKGVVPQKLWEAFWAVKDTMQAQDNITSARLLQQEVLQNVSDAESCYLVHTLLEFYLKTVFKNYHNRTVEVRTLKSFSTLANNFVLIVSQLQPSQENEMFSIRDSAHRRFLLFRRAFKQLDVEAALTKALGEVDILLTWMQKFYKL
HeLa cells [7]; HeLa cells, versus full length MDA-7, FIGS. 5, 6
  MDA-7/IL-24 protein secretion: dramatic increase in MDA-7/IL-24 protein secretion
HeLa cells [3]
  proliferation (MTT): decrease in proliferation
HeLa cells [8]
  proliferation (MTT): decrease in proliferation
SARI; DU-145 cells, five signal peptide MDA-7 constructs, FIG. 4
  SARI expression at the transcript level: highest SARI expression
DU-145 cells [9]
  proliferation (MTT): decrease in proliferation

B6: Insulin(sp)-MDA-7(K122R): insulin signal peptide fused to the K122R mutation variant of MDA-7/IL-24; encoded by SEQ ID NO: 11 (protein)
chain: MALWMRLLPLLALLALWGPDPAAAHHHHHHENLYFQGMQEFHFGPCQVKGVVPQKLWEAFWAVKDTMQAQDNITSARLLQQEVLQNVSDAESCYLVHTLLEFYLKTVFRNYHNRTVEVRTLKSFSTLANNFVLIVSQLQPSQENEMFSIRDSAHRRFLLFRRAFKQLDVEAALTKALGEVDILLTWMQKFYKL
DU-145 cells [10]
  MDA-7/IL-24 expression in the conditioned media using ELISA: enhanced MDA-7/IL-24 expression
HeLa cells [3]
  proliferation (MTT): decrease in proliferation
SARI; compared to Insulin(sp)-MDA-7 or MDA-7 containing K122R, FIG. 12
  SARI induction at the transcript level: highest SARI induction
DU-145 cells [11]
  MDA-7/IL-24 expression at the transcript level using RTQ-PCR: enhanced MDA-7/IL-24 expression
